Measurements from the supplement of paper PMC9170038.

Tested on: K4 kissing-loop RNA reporter
Experiment: apparent KD of K4 kissing-loop reporter; higher = weaker reporter binding
Settings: Eterna round: R107
Procedure: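 RNA-MaP round R107: designed RNA switches with theophylline, tryptophan, arginine or FMN aptamers are transcribed on-chip within common flanks. They are titrated with a labelled K4 kissing-loop RNA reporter in RNA-MaP buffer (100 mM Tris pH 7.5, 80 mM KCl, 4 mM MgCl2), without ligand or with the indicated ligand. Median apparent KD per design.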

[1] = input ligand: theophylline 20 uM
[2] = input ligand: tryptophan 2.4 mM
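Also: bound reporter read as fluorescence of individual clusters on recovered sequencing chips by microscopy, with normalized cluster intensities fitted with a binding model.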

| Sequence | apparent KD of K4 kissing-loop reporter (input ligand: FMN 200 uM) [µM] | apparent KD of K4 kissing-loop reporter (input ligand: arginine 13.2 mM) [µM] | apparent KD of K4 kissing-loop reporter (input ligand: none) [µM] | apparent KD of K4 kissing-loop reporter [1] [µM] | apparent KD of K4 kissing-loop reporter [2] [µM] |
| --- | --- | --- | --- | --- | --- |
| UGACAUUGCUCAGAUACCAGACUUGAGGAACACCCAAGUGCCAAACGUACAAUAAUAAAAGUCCCUUGGCAGCUGAGCAAUGUCU [TheoBX 14] | 0.111 | 0.0536 | 0.0821 | 0.0628 | 0.0598 |
| UGACUGGACUGAAGGAGCGAGCGAGACAAAGUCUCGAAAAUUCAGUGAUGUUGAAAUAUAACUCAGGUAGGUCGCAGUCUAGUCU [ArgBS 4 #SwitchBubble #StaticStem] | 0.328 | 0.303 | 0.377 | 0.313 | 0.304 |
| UGACUGGACUGAAGGAGCGCUAAACUCCUAGUGAUGUUAGGAAAACGAGACAAAGUCUCGAAGCAGGUAGGUCGCAGUCUAGUCU | 0.172 | 0.147 | 0.177 | 0.162 | 0.169 |
| UGACUGGACUGAAGGAGCGCUAAACUCCUAGUGAUGUUAGGAAAUACGAGACAAAGUCUCGGGCAGGUAGGUCGCAGUCUAGUCU [ArgBS 19 #SwitchBubble #StaticStem] | 0.122 | 0.118 | 0.132 | 0.128 | 0.101 |
| UGACUGGACUGAAGGAGCGCUAAACUCCUAGUGAUGUUAGGAUAACGAGACAAAGUCUCGAAGCAGGUAGGUCGCAGUCUAGUCU | 0.149 | 0.11 | 0.117 | 0.133 | 0.128 |
| UGACUGGACUGAAGGAGCGCUGAACUCCUAGUGAUGUUAGGACAACGAGACAAAGUCUCGAAGCAGGUAGGUCGCAGUCUAGUCU | 0.154 | 0.129 | 0.154 | 0.152 | 0.184 |
| UGACUGGACUGAAGGAGCGCUGAACUCCUAGUGAUGUUAGGACAACGAGACAAAGUCUCGCGGCAGGUAGGUCGCAGUCUAGUCU | 0.159 | 0.119 | 0.121 | 0.145 | 0.131 |
| UGACUGGACUGAAGGAGCGCUUAACUCCUAGUGAUGUUAGGACAACGAGACAAAGUCUCGAAGCAGGUAGGUCGCAGUCUAGUCU | 0.217 | 0.155 | 0.204 | 0.198 | 0.199 |
| UGACUGGACUGAAGGAGCGGGCGAGACAAAGUCUCGAACUCGUAGUGAUGUUACGAAAUAACCCAGGUAGGUCGCAGUCUAGUCU | 0.0778 | 0.062 | 0.0749 | 0.0672 | 0.0749 |
| UGACUGGACUGAAGGAGCGUUGAAGGAGCGUAAGGAGUGAUGUUCCAUACAGGUAGGUCGCAGCAGGUAGGUCGCAGUCUAGUCU [ArgBS 26 #DoubleAptamer #SwitchBubble] | 0.204 | 0.245 | 0.229 | 0.171 | 0.281 |
| UGACUGGACUGAAGGAGCGUUGAAGGAGCGUAGGCAGUGAUGUUGCCUACAGGUAGGUCGCAGCAGGUAGGUCGCAGUCUAGUCU [ArgBS 27 #DoubleAptamer #SwitchBubble] | 0.132 | 0.0921 | 0.108 | 0.0661 | 0.107 |
| UGACUGGAUGGAAGGAGCGCUAAACUCCUAGUGAUGUUAGGGACACGAGACAAAGUCUUGAGGCAGGUAGGUCGCCAUCUAGUCU [FiskerMod 8 - Jieux - Same State - Arginine B] | 0.379 | 0.211 | 0.251 | 0.25 | 0.241 |
| UGACUGGAUGGAAGGAGCGCUAAACUCCUAGUGAUGUUAGGGAUAUGAGGCAAAGCCUCGAGGCAGGUAGGUCGCCAUCUAGUCU [FiskerMod 19 - Jieux - Same State - Arginine B] | 0.138 | 0.114 | 0.135 | 0.142 | 0.122 |
| UGACUGGAUUGAAGGAGCGCUAAACUCCUAGUGAUGUUAGGGAAACAAGACAAAGUCUUGAGGCAGGUAGGUCGCAAUCUAGUCU [FiskerMod 4 - Jieux - Same State - Arginine B] | 0.182 | 0.149 | 0.173 | 0.234 | 0.175 |
| UGAGGAGAUUAUGAUACCAGCAGAGAGAGAGAGGAAGUAUAGUGAUGUUAUAUGAGAUAAUGCCCUUGGCAGCAUAAGAAGAAGG [#20 K4 Theophylline B Same State] | 0.182 | 0.133 | 0.148 | 0.147 | 0.14 |
| UGAUACCAGACGGCCGCCACUAGGACCGGGAGUGAUGUUCCCAAUUUAAAAUGCUCGGCCGCCACUAGGACCGGGUCUGGUAUCU [TrypBX 27 #DoubleAptamer #SwitchBubble] | 0.173 | 0.207 | 0.198 | 0.305 | 0.109 |

| Sequence | apparent KD of K4 kissing-loop reporter (input ligand: FMN 200 uM) [µM] | apparent KD of K4 kissing-loop reporter (input ligand: arginine 13.2 mM) [µM] | apparent KD of K4 kissing-loop reporter (input ligand: none) [µM] | apparent KD of K4 kissing-loop reporter [1] [µM] | apparent KD of K4 kissing-loop reporter [2] [µM] |
| --- | --- | --- | --- | --- | --- |
| UGAUACCAGACGGCCGCCACUCCCGUAAGUCAAAGACUUACGAAGAGAGUUGUCCAGUGAUGUUGGAGGACCGGGUCUGGUAUCU [FiskerMod 13 - Jieux - Exclusion - Tryptophan B] | 0.23 | 0.208 | 0.207 | 0.202 | 0.26 |
| UGAUACCAGACGGCCGCCACUCCCGUAAGUCAAAGACUUACGAAGAGGGUUUUUUAGUGAUGUUGGAGGACCGGGUCUGGUAUCU [FiskerMod 18 - Jieux - Exclusion - Tryptophan B] | 0.618 | 0.256 | 0.618 | 0.653 | 2.32 |
| UGAUACCAGACGGCCGCCACUCCUGCAGUCAAAGACUGCAAGGAAAUAUUCGUCCAGUGAUGUUGGAGGACCGGGUCUGGUAUCU [TrypBX 9 #SwitchBubble #Palindromic #StaticStem] | 0.921 | 0.687 | 0.82 | 0.67 | 1.06 |
| UGAUACCAGACGGCCGCCACUUCUGCAAGUCAAAGACUUGCUAAGGGAAUCGUCCAGUGAUGUUGGAGGACCGGGUCUGGUAUCU [FiskerMod 2 - Jieux - Exclusion - Tryptophan B] | 1.05 | 0.823 | 1.2 | 0.999 | 1.05 |
| UGAUACCAGACUGAUACCAGCAGUGAUGUUGCUGAAAAUAAUAAAUGAGUCAAAGACUCGGGCCCUUGGCAGCAGUCUGGUAUCU [TheoBX 8 #SwitchBubble #StaticStem] | 0.111 | 0.114 | 0.116 | 0.117 | 0.0959 |
| UGAUACCAGACUGAUACCAGCCAGUGAUGUUGGCUAAUCCAAGAAGGAGUCAAAGACUCCGGCCCUUGGCAGCAGUCUGGUAUCU [TheoBX 3 #SwitchBubble #StaticStem] | 0.117 | 0.104 | 0.111 | 0.11 | 0.109 |
| UGAUACCAGACUGAUACCAGCGAGUGAUGUUCGUUGAAAUCAGGGUCAAAGACCCUGUCUCGCCCUUGGCAGCAGUCUGGUAUCU [TheoBX 22 #SwitchBubble #StaticStem] | 0.69 | 0.704 | 0.829 | 0.32 | 0.785 |
| UGAUACCAGACUGAUACCAGCUAGUGAUGUUAGCUGAAAUCAGGGUCAAAGACCCUGUCUGGCCCUUGGCAGCAGUCUGGUAUCU [TheoBX 18 #SwitchBubble #StaticStem] | 0.0832 | 0.0723 | 0.0762 | 0.0732 | 0.0712 |
| UGAUACCAGACUGAUACCAGCUAGUGAUGUUAGCUGAUCUAAGGACCGUCAAAGACGGCUAGCCCUUGGCAGCAGUCUGGUAUCU [TheoBX 13 #SwitchBubble #StaticStem] | 0.12 | 0.105 | 0.121 | 0.13 | 0.121 |
| UGAUAGCCAGUGAUGUUGGCAUAUACUGAAGGAGCGCGUGAAAACGCAGGUAGGUCGCAGUUCCUUGCCAAUUGAUCGAAAGAUC [#08 K4 Arginine A Exclusion] | 0.162 | 0.2 | 0.183 | 0.207 | 0.162 |
| UGAUAGGACAGAAGGAGCGGAAGUGAUGUUUCCAAAAGAUAUGGUCGACAAAGUCGACUUUUCCAGGUAGGUCGCUGUCCUAUCU [KL-XARG-B18] | 0.0604 | 0.0901 | 0.0671 | 0.0841 | 0.0666 |
| UGAUAGGACAGAAGGAGCGGAAUGCUGUCCAAAAGGACAGCAAAUAUAACAGGAGUGAUGUUCCAGGUAGGUCGCUGUCCUAUCU [ArgBX 21 #SwitchBubble #StaticStem] | 0.246 | 0.197 | 0.214 | 0.199 | 0.187 |
| UGAUAGGACAGAAGGAGCGGAGGUCGUCAAAGACGACCAAUAACGUUGAUAGGAGUGAUGUUCCAGGUAGGUCGCUGUCCUAUCU [ArgBX 29 #SwitchBubble #StaticStem] | 0.147 | 0.127 | 0.121 | 0.152 | 0.0958 |
| UGAUAGGACAGAAGGAGCGGUAGUGAUGUUACCAAAAGGUUAAGGUGUCAAAAGACACCCUGCCAGGUAGGUCGCUGUCCUAUCU | 0.117 | 0.098 | 0.106 | 0.0899 | 0.0834 |
| UGAUAGGACAGAAGGAGCGGUAGUGAUGUUGCCAAAAGGGUAAGGUGUCAAAAGACACCCUACCAGGUAGGUCGCUGUCCUAUCU | 0.0839 | 0.0932 | 0.0846 | 0.087 | 0.0834 |
